Source: article PMC5646241, “Copper Chaperone CupA and Zinc Control CopY Regulation of the Pneumococcal cop Operon”

Legend:
[1] = molecular target: CopY, repressor of the Streptococcus pneumoniae cop operon (Streptococcus pneumoniae TIGR4); assay: SEC-MALS; WTC-010S5 column, 50 mM Tris-HCl pH 7.5, 100 mM NaCl, 5% glycerol, with 100 µM zinc, 25°C
[2] = molecular target: CopY, repressor of the Streptococcus pneumoniae cop operon (Streptococcus pneumoniae TIGR4); assay: SEC-MALS; WTC-010S5 column, 50 mM Tris-HCl pH 7.5, 100 mM NaCl, 5% glycerol, without zinc (apo CopY), 25°C
CopY, zinc-bound = CopY, zinc-bound (Streptococcus pneumoniae TIGR4, UniProt A0ACD7PQP7 1-131); assay: fluorescence polarization; 10 uM Zn2+; FP: 50 mM Tris-HCl pH 7.5, 100 mM NaCl, 5% glycerol, Chelex-treated, 10 nM DNA, temperature not stated; EMSA: TBS, 20 ul, 4 C, 50 uM CopY, 50 ng DNA, 6% TBE gel, 0.5x TB running buffer without EDTA; conditions: protein: recombinant; tags: pMCSG7 vector construct (tag not given); chain copies: 4; label: FAM on strand 1; blunt
[3] = molecular target: T1, CopY (copper-responsive cop operon repressor) (Streptococcus pneumoniae TIGR4, UniProt A0ACD7PQP7 1-131); assay: fluorescence polarization; apo, no metal; FP: 50 mM Tris-HCl pH 7.5, 100 mM NaCl, 5% glycerol, Chelex-treated, 10 nM DNA, temperature not stated; EMSA: TBS, 20 ul, 4 C, 50 uM CopY, 50 ng DNA, 6% TBE gel, 0.5x TB running buffer without EDTA; conditions: protein: recombinant; tags: pMCSG7 vector construct (tag not given); chain copies: 2; label: FAM on strand 1; blunt
[4] = molecular target: T1, CopY (copper-responsive cop operon …); assay: fluorescence polarization; apo; described as nonspecific binding, linear; FP: 50 mM Tris-HCl pH 7.5, 100 mM NaCl, 5% glycerol, Chelex-treated, 10 nM DNA, temperature not stated; EMSA: TBS, 20 ul, 4 C, 50 uM CopY, 50 ng DNA, 6% TBE gel, 0.5x TB running buffer without EDTA; conditions: protein: recombinant; tags: pMCSG7 vector construct (tag not given); chain copies: 2; label: FAM on strand 1; blunt
[5] = molecular target: T1, CopY (copper-responsive cop operon …); assay: EMSA; no metal; 50 uM CopY; FP: 50 mM Tris-HCl pH 7.5, 100 mM NaCl, 5% glycerol, Chelex-treated, 10 nM DNA, temperature not stated; EMSA: TBS, 20 ul, 4 C, 50 uM CopY, 50 ng DNA, 6% TBE gel, 0.5x TB running buffer without EDTA; conditions: protein: recombinant; tags: pMCSG7 vector construct (tag not given); chain copies: 2; label: 3' biotin on strand 1; blunt

## CopY, repressor of the Streptococcus pneumoniae cop operon (natural protein)
[1]
  stoichiometry N: 4
[2]
  stoichiometry N: 2

B1: pSP_0727 cop promoter, FAM (dsDNA)
DNA 1: TCTATAATTGACAAATGTAGATTTTAAGAGTATACTGATGAGTGTAATTGACAAATG
DNA 2: CATTTGTCAATTACACTCATCAGTATACTCTTAAAATCTACATTTGTCAATTATAGA
CopY, zinc-bound
  Kd: 520 ± 130 nM
[3]
  Kd: 4240 ± 780 nM

B2: pSP_1541 promoter, FAM (dsDNA)
DNA 1: GCGAACCTCACTTACCCCTTGCAAAGTCTTGGGGTCATTAGA
DNA 2: TCTAATGACCCCAAGACTTTGCAAGGGGTAAGTGAGGTTCGC
[4]
  binding result: no binding

B3: pSP_1541 promoter, biotinylated (dsDNA)
DNA 1: B2 DNA 1
DNA 2: B2 DNA 2
[5]
  binding result: no binding
